According to patent US20260374875 (published 2026):

T1: mouse FcRn (mouse, UniProt Q61559)
T1 chain 1: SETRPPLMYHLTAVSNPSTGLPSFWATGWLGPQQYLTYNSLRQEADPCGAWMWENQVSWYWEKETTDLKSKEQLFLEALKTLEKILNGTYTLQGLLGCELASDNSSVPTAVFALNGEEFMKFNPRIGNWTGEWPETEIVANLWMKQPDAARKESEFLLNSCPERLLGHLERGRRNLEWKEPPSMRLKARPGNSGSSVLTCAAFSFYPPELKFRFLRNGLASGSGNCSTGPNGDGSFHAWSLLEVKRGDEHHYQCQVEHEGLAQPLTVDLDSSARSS
T1 chain 2: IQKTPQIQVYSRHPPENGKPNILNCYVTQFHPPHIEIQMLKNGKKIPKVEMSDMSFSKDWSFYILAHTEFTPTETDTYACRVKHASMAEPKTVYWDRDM

T2: monkey FcRn (monkey, UniProt Q8SPV9)
T2 chain 1: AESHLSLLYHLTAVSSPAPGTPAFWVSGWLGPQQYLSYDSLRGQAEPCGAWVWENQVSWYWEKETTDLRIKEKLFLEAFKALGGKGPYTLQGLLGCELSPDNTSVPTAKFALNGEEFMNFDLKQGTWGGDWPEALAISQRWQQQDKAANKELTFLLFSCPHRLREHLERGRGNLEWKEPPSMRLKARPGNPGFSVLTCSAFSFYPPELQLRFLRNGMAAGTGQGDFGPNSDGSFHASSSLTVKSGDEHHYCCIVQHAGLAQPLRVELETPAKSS
T2 chain 2: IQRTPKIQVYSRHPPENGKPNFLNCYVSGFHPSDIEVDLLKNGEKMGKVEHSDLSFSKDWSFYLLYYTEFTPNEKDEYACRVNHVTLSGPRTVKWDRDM


What was measured:
mouse FcRn = biological target: T1, mouse FcRn; test: SPR, pH 6.0, 25C
human FcRn [1] = biological target: T3, human FcRn (human, UniProt P55899); test: SPR, pH 6.0, 25C
human FcRn [2] = biological target: T3, human FcRn; test: SPR, pH 7.4, 25C
human FcRn [3] = biological target: T3, human FcRn; test: SPR, pH 6.0, 25C; remark: listed apart in the source
monkey FcRn = biological target: T2, monkey FcRn; test: SPR, pH 6.0, 25C

Binder	Kd (mouse FcRn) [nM]	Kd (human FcRn [1]) [nM]	Kd (human FcRn [2]) [nM]	Kd (human FcRn [3]) [nM]	Kd (monkey FcRn) [nM]
A3 H11A4.1 (mAb) (antibody) chain 1: not shown chain 2: MGWSCIILFLVATATGVHSQSALTQPASVSGSPGQSITISCTGTSSDVGGYNYVSWYQQHPGKAPKLMIYDVSKRPSGVSNRFSGSKSGNTASLTISGLQSEDEADYYCNSLTSISTWVFGGGTKLTVLGQPKANPTVTLFPPSSEELQANKATLVCLISDFYPGAVTVAWKADGSPVKAGVETTKPSKQSNNKYAASSYLSLTPEQWKSHRSYSCQVTHEGSTVEKTVAPTECS	0.165	1.93	29.6	2.6	3.13
B14 H11A4.1 (mAb) (antibody) chain 1: MGWSCIILFLVATATGVHSQVQLVESGGGLVKPGGSLRLSCAASGFTFSDYYMSWIRQAPGKGLEWVSYITYSGSTIYYADSVKGRFTISRDNAKSSLYLQMNSLRAEDTAVYYCARDRGTTMVPFDYWGQGTLVTVSSASTKGPSVFPLAPSSKSTSGGTAALGCLVKDYFPEPVTVSWNSGALTSGVHTFPAVLQSSGLYSLSSVVTVPSSSLGTQTYICNVNHKPSNTKVDKKVEPKSCDKTHTCPPCPAPEAAGGPSVFLFPPKPKDTLMISRTPEVTCVVVDVSHEDPEVKFNWYVDGVEVHNAKTKPREEQYNSTYRVVSVLNPYHQDWLNGKEYKCKVSNKALGAPIEKTISKAKGQPREPQVYTLPPSREEMTKNQVSLTCLVKGFYPSDIAVEWESNGQPENNYKTTPPVLDSDGSFFLYSKLTVDKSRWQQGNVFSCSVMHEALRWHYTQKSLSLSPGK chain 2: not shown	0.189	2.85	34.1	3.3	4.26
B14 H11A4.3 (mAb) (antibody) chain 1: MGWSCIILFLVATATGVHSQVQLVESGGGLVKPGGSLRLSCAASGFTFSDYYMSWIRQAPGKGLEWVSYITYSGSTIYYADSVKGRFTISRDNAKSSLYLQMNSLRAEDTAVYYCARDRGTTMVPFDYWGQGTLVTVSSASTKGPSVFPLAPSSKSTSGGTAALGCLVKDYFPEPVTVSWNSGALTSGVHTFPAVLQSSGLYSLSSVVTVPSSSLGTQTYICNVNHKPSNTKVDKKVEPKSCDKTHTCPPCPAPEAAGGPSVFLFPPKPKDTLYITREPEVTCVVVDVSHEDPEVKFNWYVDGVEVHNAKTKPREEQYNSTYRVVSVLNPYHQDWLNGKEYKCKVSNKALGAPIEKTISKAKGQPREPQVYTLPPSREEMTKNQVSLTCLVKGFYPSDIAVEWESNGQPENNYKTTPPVLDSDGSFFLYSKLTVDKSRWQQGNVFSCSVMHEALRWHYTQKSLSLSPGK chain 2: not shown	0.782	1.23	15.1	1.23	2.45
B14 H11A4.2 (mAb) (antibody) chain 1: MGWSCIILFLVATATGVHSQVQLVESGGGLVKPGGSLRLSCAASGFTFSDYYMSWIRQAPGKGLEWVSYITYSGSTIYYADSVKGRFTISRDNAKSSLYLQMNSLRAEDTAVYYCARDRGTTMVPFDYWGQGTLVTVSSASTKGPSVFPLAPSSKSTSGGTAALGCLVKDYFPEPVTVSWNSGALTSGVHTFPAVLQSSGLYSLSSVVTVPSSSLGTQTYICNVNHKPSNTKVDKKVEPKSCDKTHTCPPCPAPELLGGPSVFLFPPKPKDTLYITREPEVTCVVVDVSHEDPEVKFNWYVDGVEVHNAKTKPREEQYNSTYRVVSVLNPYHQDWLNGKEYKCKVSNKALPAPIEKTISKAKGQPREPQVYTLPPSREEMTKNQVSLTCLVKGFYPSDIAVEWESNGQPENNYKTTPPVLDSDGSFFLYSKLTVDKSRWQQGNVFSCSVMHEALRWHYTQKSLSLSPGK chain 2: not shown	–	1.74	–	–	–
W11A4.1 (Dimer) (protein) MGWSCIILFLVATATGVHSSDKTHTCPPCPAPEAAGGPSVFLFPPKPKDTLMISRTPEVTCVVVDVSHEDPEVKFNWYVDGVEVHNAKTKPREEQYNSTYRVVSVLNPYHQDWLNGKEYKCKVSNKALGAPIEKTISKAKGQPREPQVYTLPPSRDELTKNQVSLTCLVKGFYPSDIAVEWESNGQPENNYKTTPPVLDSDGSFFLYSKLTVDKSRWQQGNVFSCSVMHEALRWHYTQKSLSLSPGKGGGSGGGSGGGSGGGSSGGGSSSDKTHTSPPSPAPEAAGGPSVFLFPPKPKDTLMISRTPEVTCVVVDVSHEDPEVKFNWYVDGVEVHNAKTKPREEQYNSTYRVVSVLNPYHQDWLNGKEYKCKVSNKALGAPIEKTISKAKGQPREPQVYTLPPSRDELTKNQVSLTCLVKGFYPSDIAVEWESNGQPENNYKTTPPVLDSDGSFFLYSKLTVDKSRWQQGNVFSCSVMHEALRWHYTQKSLSLSPGK	–	1.68	–	–	–

Now those with a lower Kd (human FcRn [1]), led by results:

Kd (mouse FcRn) [nM]	Kd (human FcRn [1]) [nM]	Kd (human FcRn [2]) [nM]	Kd (human FcRn [3]) [nM]	Kd (monkey FcRn) [nM]	Binder
0.113	1.04	11.2	1.04	0.914	A3 H11A4.2 (mAb) (antibody) chain 1: not shown chain 2: MGWSCIILFLVATATGVHSQSALTQPASVSGSPGQSITISCTGTSSDVGGYNYVSWYQQHPGKAPKLMIYDVSKRPSGVSNRFSGSKSGNTASLTISGLQSEDEADYYCNSLTSISTWVFGGGTKLTVLGQPKANPTVTLFPPSSEELQANKATLVCLISDFYPGAVTVAWKADGSPVKAGVETTKPSKQSNNKYAASSYLSLTPEQWKSHRSYSCQVTHEGSTVEKTVAPTECS
2.57	0.803	18.8	0.803	3.76	A3 H11A4.3 (mAb) (antibody) chain 1: not shown chain 2: MGWSCIILFLVATATGVHSQSALTQPASVSGSPGQSITISCTGTSSDVGGYNYVSWYQQHPGKAPKLMIYDVSKRPSGVSNRFSGSKSGNTASLTISGLQSEDEADYYCNSLTSISTWVFGGGTKLTVLGQPKANPTVTLFPPSSEELQANKATLVCLISDFYPGAVTVAWKADGSPVKAGVETTKPSKQSNNKYAASSYLSLTPEQWKSHRSYSCQVTHEGSTVEKTVAPTECS
0.0918	0.559	15.2	0.7	0.928	H11A4.1 (Monomer) (protein) MGWSCIILFLVATATGVHSSDKTHTCPPCPAPEAAGGPSVFLFPPKPKDTLMISRTPEVTCVVVDVSHEDPEVKFNWYVDGVEVHNAKTKPREEQYNSTYRVVSVLNPYHQDWLNGKEYKCKVSNKALGAPIEKTISKAKGQPREPQVYTLPPSREEMTKNQVSLTCLVKGFYPSDIAVEWESNGQPENNYKTTPPVLDSDGSFFLYSKLTVDKSRWQQGNVFSCSVMHEALRWHYTQKSLSLSPGK
0.0556	0.292	3.51	0.292	0.592	H11A4.2 (monomer) (protein) MGWSCIILFLVATATGVHSSDKTHTCPPCPAPELLGGPSVFLFPPKPKDTLYITREPEVTCVVVDVSHEDPEVKFNWYVDGVEVHNAKTKPREEQYNSTYRVVSVLNPYHQDWLNGKEYKCKVSNKALPAPIEKTISKAKGQPREPQVYTLPPSRDELTKNQVSLTCLVKGFYPSDIAVEWESNGQPENNYKTTPPVLDSDGSFFLYSKLTVDKSRWQQGNVFSCSVMHEALRWHYTQKSLSLSPGK
0.839	0.288	7.62	0.288	1.38	H11A4.3 (monomer) (protein) MGWSCIILFLVATATGVHSSDKTHTCPPCPAPEAAGGPSVFLFPPKPKDTLYITREPEVTCVVVDVSHEDPEVKFNWYVDGVEVHNAKTKPREEQYNSTYRVVSVLNPYHQDWLNGKEYKCKVSNKALGAPIEKTISKAKGQPREPQVYTLPPSREEMTKNQVSLTCLVKGFYPSDIAVEWESNGQPENNYKTTPPVLDSDGSFFLYSKLTVDKSRWQQGNVFSCSVMHEALRWHYTQKSLSLSPGK
